Experimental data reported in the supplement of paper PMC12042874.
± gives the uncertainty stated by the source.

Assay: amyloid nucleation score (Sup35N fusion, yeast selection) (log enrichment); library NNK3; higher = more nucleation; inactive = no reads after selection
Method in brief: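 Psi-negative yeast expressed Sup35N fused to peptides of 20 random codons. They were induced 24 hours with 100 μM copper sulfate, grown 7 days at 30°C without adenine and uracil, and their plasmid inserts from input and output were Illumina-sequenced. The nucleation score is the DiMSum log enrichment of output over input reads, centred on the mode score of non-aggregating sequences. Sequences with under 100 input reads were excluded.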

Substance	amyloid nucleation score
RTTKSNYTVLLDQNIPLSPT	inactive
SREIYSMVMQSHLVQWGVIA	inactive
FFNSVMIYGWS	0.07 ± 0.3
RSRLAGFSNYFCMKCVIAAG	inactive
YMTGLD	inactive
LYWKEIPGMDYKMAV	inactive
CKCYYGTSDFCGVGFETASR	inactive
IIYFRVISIGYSWGIVRDRF	inactive
FTEKGGLPC	inactive
WFYYVM	inactive
SLFFSYV	inactive
QQRHMLS	0.294 ± 0.25
GIFIKFGYR	inactive
CVFPCMFLEFTMTDMKLYSS	inactive
LDGGMNNRR	inactive
TLQHLGYVSNIWGVVTAAGS	inactive
KAPNPI	inactive
ISMHPERQVMMRLPCRMCCL	inactive
DKGVVPL	inactive
KRLFIILIWKFCTGLCFL	inactive
YSLLSSMPLIRRRLGLYESW	inactive
GSLGAMKNQTTASQGAEGAL	inactive
VQCRDVLGNDVFCVYHLGVE	inactive
WSRMTKSHKCRWDQLVTVHG	inactive

Substance	amyloid nucleation score
DRYDSVYEDGLLLLMFFDHV	inactive
IVGIKVDIYNTSGCS	1.7 ± 0.12
IRTNAGSLYFYWGTLFRISH	inactive
NFLKSG	inactive
SGIFKLNCHKVGLILQSPYR	0.055 ± 0.35
SAARSNPW	0.311 ± 0.31
SFSVSKAWGWMYSIQRCCLC	inactive
ASRKTFYAL	inactive
SYLYVTKYVLFDR	inactive
YSVVNDSGIFFYVGHHVFAV	inactive
FLRRLSRKTKDMDSSRGMCC	inactive
VSVLRWLKRLDLHCGGV	inactive
CFIMLWCTISFIILVSLVTD	0.671 ± 0.3
SLYKYRIWCMVFVVYFSQSQ	inactive
CQRPWNRTRR	inactive
RRFRSLKRPAQNLSDALMSG	inactive
LDVGIVYSLVVCRKIRRSL	inactive
IYVGKRNSCRPSSEDSVGNR	0.402 ± 0.38
RLSRWRRSNFSE	inactive
PHRFYYYWYSWCFILSNSCQ	inactive
GGLSL	inactive
LCFAVSDCFNYKVLPILMGA	inactive
YNDDKYCFDMNCMSPRYRGD	-0.191 ± 0.4
RSYIKGIFCLSAMRFQCSMS	-0.404 ± 0.78

Substance	amyloid nucleation score
TCCNQRFGVRWNIYYGSDVW	0.742 ± 0.15
PRMRA	inactive
HSVWVYKHGLCDMWGGLTLI	inactive
WYHVSHVYYGVGIGLRD	inactive
SVHRLFISCKVWGFKVLWPV	inactive
CTSCILYFLLIYYHYNSS	inactive
NVGNRCYWWVLMARLLSIFR	inactive
FLDSLYKRGCNKFGQLWR	inactive
RFVTSLYDMLSI	inactive
HFSLSG	inactive
YSVIYDRSYRIV	inactive
ICLYLRQVKLIAGAERKKVQ	inactive
CRGTWDNDAVGRVDRNSRKS	inactive
CHYNFPVPAVKILRGQRNVA	inactive
SRSFKRNLVSMVNLGVRDEM	inactive
MNLFFGFWLLLSAFVSHQVC	inactive
LNRSSLYFF	inactive
KIHCAESATVVLWVRVGDCR	inactive
RWFQRWEIKTNAHLLTTLNM	inactive
MHPCSL	inactive
GASVGFEVHCNFVVNLNVQH	2.18 ± 0.066
GWSQYGACRVGVWGYRAPYN	inactive
FEYEKMLKAYGEGVIGSWLF	inactive
TMTIDESTWVVSANMSYRMK	1.37 ± 0.1

Substance	amyloid nucleation score
ANSYHWTVFVRMFSQDIVNI	inactive
ERIIFYCNRVRRMLYGGLVR	inactive
CQVGRKRLLYVFTGYK	inactive
TIPFRAINPVSM	inactive
IAQILDVQFSVHAIGVSRDM	inactive
RTGTNS	inactive
PNNSLETTYFRVTWSFE	inactive
VCYYRQACTITNLLVMVFVC	inactive
RAFLPYYAGYEDRTQSWL	inactive
QQHRSALRVQVHRVCGNSVI	inactive
GFCKIAAMGFAYHDGAFDGF	inactive
NVYFGRYFI	inactive
NLRFRSIFSS	inactive
VVDDIWRPIDL	inactive
RYRTRRALHVYDEFVFEFKP	-0.057 ± 0.68
GNPRNMTVDDSDGKSFYFFY	inactive
PLSNNKVVWWYYL	inactive
LVYKLDVNCYDRNLLDSVEK	inactive
KMMARTSNVVEVLCWRTDVA	0.015 ± 0.64
FYIICWWVLDQDFCAWL	inactive
LSHSRSNL	inactive
LGIQYLDETHCPKSTSKGFS	inactive
ANLIYPRLEFCISMCTQMAE	inactive
FMIYYLGLFRR	inactive

Substance	amyloid nucleation score
VSFFDQTKASGYSLRLMLFM	inactive
VTGHLGKG	inactive
VKSRNENIDPGCWRLELAPF	inactive
NMTTLVKTMEDNMDSCISGV	1.12 ± 0.11
CMLSMFSCCCFDSPRRYCH	2.36 ± 0.051
NYLKFCFSCRCIVLSRTVSW	inactive
IVKCLYVVCV	inactive
HECKYFGVCGRSQGNRSWVA	inactive
LFARRVGSYCVIVCQPVLWE	inactive
YILGKSKSPFLLKCAVKI	inactive
WHWRGTICVLCAGYRWIAHS	inactive
LKVFKWKISTLMKAAQPIAS	inactive
AEYLMEQAGTMC	inactive
VRAGSLYHCVRNPISRGLAV	-0.57 ± 1.8
HWGWVTSIESVVRRFCNNFC	inactive
WLLKIMQYLDLAGNG	inactive
SVRWMTGRFVGCRRNQVQFR	0.505 ± 0.38
ELGMQSNGSSNDRLERRRIR	inactive
KQVNSCDFLMWMLLALHFKG	inactive
EGRFLKLFWSGSL	-0.108 ± 0.51
TSRDQPRNVYVVVAVI	inactive
SCLTDKRSCFC	0.538 ± 0.34
